Experimental findings from paper PMC5823917, “Sumoylation regulates FMRP-mediated dendritic spine elimination and maturation” (Nature Communications, 2018) are described below.

The series deals with the molecule itself. As to the kind of experiment: pull-down; GST-FMRP (1-160) 1 ug with 2 ug His-FMRP (1-160), 2 h at 4 °C in dimerization buffer (50 mM Tris-HCl pH 8, 150 mM NaCl, 2.5 mM MgCl2, 0.5% NP40, 0.5 mM DTT); glutathione beads, five washes; free GST as control.

B1: FMRP (1-160 aa), N-terminal domain, GST-tagged and His-tagged copies (domain or fragment)
chain: not shown
notes: FMRP, N-terminal domain, residues 1-160; Two differently tagged copies of one fragment: GST-FMRP (1-160) held on glutathione beads and His-FMRP (1-160) in solution; each copy carries one tag, not both; also called GST-FMRP (1-160); His-FMRP (1-160 aa); source: E. coli BL21(DE3), purified (glutathione gel for GST-FMRP, Nickel resin for His-FMRP)
As to B1, the binding result is reported as “binds”.
